For test [1], the target named is MT145K SOSIP.664 trimer (MT145 Q171K). The test can be described thus: ELISA. Also on record: unit not given beside the values. (In general: ELISA stands for enzyme-linked immunosorbent assay.)
In test [2] the target is MT145K gp120 monomer. The test can be described thus: ELISA. Further details: unit not given beside the values.
Test [3] deals with CRF250 SOSIP trimer (HIV-1 (subtype AG)). The test can be described thus: method not stated.

Turning to CH01, the EC50 is 0.187 ? in test [1] and 10 ? in test [2].

What is called Kd is the equilibrium constant for the complex coming apart. In test [3], CH01 UCA BCR (antibody) gave an equilibrium dissociation constant (Kd) of 100 nM. Regarding PG9, the EC50 in test [2] is given as 0.792 ?.

Values taken from patent US20210324003A1.
